T1: Boi2 SH3 (BOI2_YEAST), P39969
T1 chain: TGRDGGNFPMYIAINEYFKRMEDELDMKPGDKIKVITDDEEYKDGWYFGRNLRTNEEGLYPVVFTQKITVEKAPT

T2: Boi1 SH3 (BOI1_YEAST), P38041
T2 chain: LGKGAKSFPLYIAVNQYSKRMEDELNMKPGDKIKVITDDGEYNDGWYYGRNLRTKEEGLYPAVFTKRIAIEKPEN

T3: Yfr024 SH3 (LSB3_YEAST), P43603
T3 chain: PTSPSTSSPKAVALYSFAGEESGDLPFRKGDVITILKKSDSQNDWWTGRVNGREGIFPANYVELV

T4: Yhr016c SH3 (YSC84_YEAST), P32793
T4 chain: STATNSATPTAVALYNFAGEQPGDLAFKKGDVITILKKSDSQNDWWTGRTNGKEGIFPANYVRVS

T5: Rvs167 SH3 (RV167_YEAST), P39743
T5 chain: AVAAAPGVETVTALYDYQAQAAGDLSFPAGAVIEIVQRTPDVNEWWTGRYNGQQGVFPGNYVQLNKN

T6: Myo5 SH3 (MYO5_YEAST), Q04439
T6 chain: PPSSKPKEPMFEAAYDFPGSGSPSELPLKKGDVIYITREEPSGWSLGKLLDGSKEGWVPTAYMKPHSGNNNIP


Target: T1, Boi2 SH3 (BOI2_YEAST), P39969
Test: SPOT array

Row | normalised SPOT signal, Boehringer light units (BLU); mean over the file's lines of this peptide | Binder
1 | 54.1 | RFSSRRAPIAPSGK [YMR031W-A 89-102]
2 | 1230 | RFWTRARPIDPNAY [YNL317W 375-388]
3 | 3.1 | RIRDKSKPSSPTAT [YDR474C 379-392]
4 | -0 | RKSDKNAPSVPQVD [YJL117W 12-25]
5 | 50.1 | RLLSKYRPSSPIIL [YOR347C 411-424]
6 | 67.2 | RLLFRSLPPHPASL [YCR022C 77-90]
7 | 120 | RGWQRFLPTGPIAH [YGR255C 239-252]

More lines, now with the values behind:

Row | Binder | normalised SPOT signal, Boehringer light units (BLU); mean over the file's lines of this peptide
8 | REYIKSLPMYPAAP [YBL016W 257-270] | 83.3
9 | QWSKRIMPYIPGPV [YBR200W 345-358] | 145
10 | RLVNKLLPPHPFAD [YGL143C 139-152] | 28.5
11 | RAGNREPPSTPSTL [YBR079C 874-887] | 18.7
12 | RLIKRLKPPAPKEP [YML127W 362-375] | 40.3
13 | RDDVKRTPFIPESV [YPL093W 369-382] | 0
14 | REGPKSSPRGPLSP [YPR107C 40-53] | 11.9
15 | RLPSKTDPLDPHIK [YML050W 46-59] | 28
16 | RHSKKPAPPPPGMQ [YMR109W 1006-1019] | 22.2

The binders below were run against Sho1 SH3 (SHO1_YEAST), P40073 (assay: SPOT array).
Sho1 SH3 (SHO1_YEAST), P40073, sequence (P40073 295-366): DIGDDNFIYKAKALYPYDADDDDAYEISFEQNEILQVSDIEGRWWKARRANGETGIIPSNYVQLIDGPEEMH

Row | normalised SPOT signal, Boehringer light units (BLU); mean over the file's lines of this peptide | Binder
17 | 124 | RFSSRRAPIAPSGK [YMR031W-A 89-102]
18 | 177 | RFWTRARPIDPNAY [YNL317W 375-388]
19 | 169 | RIRDKSKPSSPTAT [YDR474C 379-392]
20 | 89.7 | RKSDKNAPSVPQVD [YJL117W 12-25]
21 | 41.8 | RLLSKYRPSSPIIL [YOR347C 411-424]
22 | 571 | RLLFRSLPPHPASL [YCR022C 77-90]
23 | 479 | RGWQRFLPTGPIAH [YGR255C 239-252]

Continued, binder first:

Row | Binder | normalised SPOT signal, Boehringer light units (BLU); mean over the file's lines of this peptide
24 | REYIKSLPMYPAAP [YBL016W 257-270] | 5160
25 | QWSKRIMPYIPGPV [YBR200W 345-358] | 230
26 | RLVNKLLPPHPFAD [YGL143C 139-152] | 20300
27 | RAGNREPPSTPSTL [YBR079C 874-887] | 135
28 | RLIKRLKPPAPKEP [YML127W 362-375] | 166
29 | RDDVKRTPFIPESV [YPL093W 369-382] | 45.2
30 | REGPKSSPRGPLSP [YPR107C 40-53] | 27.8
31 | RLPSKTDPLDPHIK [YML050W 46-59] | 47.9
32 | RHSKKPAPPPPGMQ [YMR109W 1006-1019] | 175

Target: T2, Boi1 SH3 (BOI1_YEAST), P38041
Test: SPOT array

Row | normalised SPOT signal, Boehringer light units (BLU); mean over the file's lines of this peptide | Binder
33 | 2030 | RFSSRRAPIAPSGK [YMR031W-A 89-102]
34 | 487 | RFWTRARPIDPNAY [YNL317W 375-388]
35 | 1510 | RIRDKSKPSSPTAT [YDR474C 379-392]
36 | 1390 | RKSDKNAPSVPQVD [YJL117W 12-25]
37 | 718 | RLLSKYRPSSPIIL [YOR347C 411-424]
38 | 465 | RLLFRSLPPHPASL [YCR022C 77-90]
39 | 95.9 | RGWQRFLPTGPIAH [YGR255C 239-252]

Further lines, the binder ahead of its results:

Row | Binder | normalised SPOT signal, Boehringer light units (BLU); mean over the file's lines of this peptide
40 | REYIKSLPMYPAAP [YBL016W 257-270] | 150
41 | QWSKRIMPYIPGPV [YBR200W 345-358] | 123
42 | RLVNKLLPPHPFAD [YGL143C 139-152] | 440
43 | RAGNREPPSTPSTL [YBR079C 874-887] | 705
44 | RLIKRLKPPAPKEP [YML127W 362-375] | 375
45 | RDDVKRTPFIPESV [YPL093W 369-382] | 0
46 | REGPKSSPRGPLSP [YPR107C 40-53] | 3920
47 | RLPSKTDPLDPHIK [YML050W 46-59] | 326
48 | RHSKKPAPPPPGMQ [YMR109W 1006-1019] | 341

Target: T3, Yfr024 SH3 (LSB3_YEAST), P43603
Test: SPOT array

Row | normalised SPOT signal, Boehringer light units (BLU); mean over the file's lines of this peptide | Binder
49 | 2420 | RFSSRRAPIAPSGK [YMR031W-A 89-102]
50 | 4260 | RFWTRARPIDPNAY [YNL317W 375-388]
51 | 592 | RIRDKSKPSSPTAT [YDR474C 379-392]
52 | 13.7 | RKSDKNAPSVPQVD [YJL117W 12-25]
53 | 519 | RLLSKYRPSSPIIL [YOR347C 411-424]
54 | 3510 | RLLFRSLPPHPASL [YCR022C 77-90]
55 | 2080 | RGWQRFLPTGPIAH [YGR255C 239-252]

The next lines start with the binder.

Row | Binder | normalised SPOT signal, Boehringer light units (BLU); mean over the file's lines of this peptide
56 | REYIKSLPMYPAAP [YBL016W 257-270] | 102
57 | QWSKRIMPYIPGPV [YBR200W 345-358] | 1820
58 | RLVNKLLPPHPFAD [YGL143C 139-152] | 187
59 | RAGNREPPSTPSTL [YBR079C 874-887] | 212
60 | RLIKRLKPPAPKEP [YML127W 362-375] | 296
61 | RDDVKRTPFIPESV [YPL093W 369-382] | 92
62 | REGPKSSPRGPLSP [YPR107C 40-53] | 184
63 | RLPSKTDPLDPHIK [YML050W 46-59] | 66.3
64 | RHSKKPAPPPPGMQ [YMR109W 1006-1019] | 304

Target: T4, Yhr016c SH3 (YSC84_YEAST), P32793
Test: SPOT array

Row | normalised SPOT signal, Boehringer light units (BLU); mean over the file's lines of this peptide | Binder
65 | 184 | RFSSRRAPIAPSGK [YMR031W-A 89-102]
66 | 970 | RFWTRARPIDPNAY [YNL317W 375-388]
67 | 46.3 | RIRDKSKPSSPTAT [YDR474C 379-392]
68 | 50.6 | RKSDKNAPSVPQVD [YJL117W 12-25]
69 | 245 | RLLSKYRPSSPIIL [YOR347C 411-424]
70 | 1600 | RLLFRSLPPHPASL [YCR022C 77-90]
71 | 597 | RGWQRFLPTGPIAH [YGR255C 239-252]

More lines, now with the values behind:

Row | Binder | normalised SPOT signal, Boehringer light units (BLU); mean over the file's lines of this peptide
72 | REYIKSLPMYPAAP [YBL016W 257-270] | 48
73 | QWSKRIMPYIPGPV [YBR200W 345-358] | 109
74 | RLVNKLLPPHPFAD [YGL143C 139-152] | 24.8
75 | RAGNREPPSTPSTL [YBR079C 874-887] | 31.9
76 | RLIKRLKPPAPKEP [YML127W 362-375] | 65.9
77 | RDDVKRTPFIPESV [YPL093W 369-382] | 0
78 | REGPKSSPRGPLSP [YPR107C 40-53] | 36.3
79 | RLPSKTDPLDPHIK [YML050W 46-59] | 29.3
80 | RHSKKPAPPPPGMQ [YMR109W 1006-1019] | 17.7

Target: T5, Rvs167 SH3 (RV167_YEAST), P39743
Test: SPOT array

Row | normalised SPOT signal, Boehringer light units (BLU); mean over the file's lines of this peptide | Binder
81 | 774 | RFSSRRAPIAPSGK [YMR031W-A 89-102]
82 | 1610 | RFWTRARPIDPNAY [YNL317W 375-388]
83 | 55.6 | RIRDKSKPSSPTAT [YDR474C 379-392]
84 | 40.6 | RKSDKNAPSVPQVD [YJL117W 12-25]
85 | 1120 | RLLSKYRPSSPIIL [YOR347C 411-424]
86 | 587 | RLLFRSLPPHPASL [YCR022C 77-90]
87 | 562 | RGWQRFLPTGPIAH [YGR255C 239-252]

The next lines start with the binder.

Row | Binder | normalised SPOT signal, Boehringer light units (BLU); mean over the file's lines of this peptide
88 | REYIKSLPMYPAAP [YBL016W 257-270] | 101
89 | QWSKRIMPYIPGPV [YBR200W 345-358] | 140
90 | RLVNKLLPPHPFAD [YGL143C 139-152] | 144
91 | RAGNREPPSTPSTL [YBR079C 874-887] | 77.6
92 | RLIKRLKPPAPKEP [YML127W 362-375] | 133
93 | RDDVKRTPFIPESV [YPL093W 369-382] | 86.7
94 | REGPKSSPRGPLSP [YPR107C 40-53] | 30.2
95 | RLPSKTDPLDPHIK [YML050W 46-59] | 110
96 | RHSKKPAPPPPGMQ [YMR109W 1006-1019] | 56.3

Target: T6, Myo5 SH3 (MYO5_YEAST), Q04439
Test: SPOT array

Row | normalised SPOT signal, Boehringer light units (BLU); mean over the file's lines of this peptide | Binder
97 | 564 | RFSSRRAPIAPSGK [YMR031W-A 89-102]
98 | 279 | RFWTRARPIDPNAY [YNL317W 375-388]
99 | 547 | RIRDKSKPSSPTAT [YDR474C 379-392]
100 | 395 | RKSDKNAPSVPQVD [YJL117W 12-25]
101 | 337 | RLLSKYRPSSPIIL [YOR347C 411-424]
102 | 746 | RLLFRSLPPHPASL [YCR022C 77-90]
103 | 802 | RGWQRFLPTGPIAH [YGR255C 239-252]

Further lines, the binder ahead of its results:

Row | Binder | normalised SPOT signal, Boehringer light units (BLU); mean over the file's lines of this peptide
104 | REYIKSLPMYPAAP [YBL016W 257-270] | 70.4
105 | QWSKRIMPYIPGPV [YBR200W 345-358] | 296
106 | RLVNKLLPPHPFAD [YGL143C 139-152] | 289
107 | RAGNREPPSTPSTL [YBR079C 874-887] | 274
108 | RLIKRLKPPAPKEP [YML127W 362-375] | 403
109 | RDDVKRTPFIPESV [YPL093W 369-382] | 171
110 | REGPKSSPRGPLSP [YPR107C 40-53] | 188
111 | RLPSKTDPLDPHIK [YML050W 46-59] | 129
112 | RHSKKPAPPPPGMQ [YMR109W 1006-1019] | 1940
